The values below are quoted from earlier work in US10927175B2, “Method for treating cancer” (Sun Jet Biotechnology Inc., priority 2017, dated 2021).

This series deals with metastatic duodenal adenocarcinoma. The note with it: gradually decreasing prednisolone and replacing tacrolimus with sirolimus after nivolumab.

On to nivolumab, for which the allograft outcome was “preserved” and the tumor outcome was “regressed”.
